Source: patent EP1747015B1 (Janssen Biotech, Inc., dated 2012)

B1: PHD103 Fab (Fab, V domains shown)
VH: QVQLVQSGAEVKKPGESLKISCKGSGYSFSNSWIAWVRQMPGKGLEWMGGIIGPGHSYTKYSPSFQGQVTISADKSISTAYLQWSSLKASDTAMYYCARINMGYFDYWGQGTLVTVSS
VL: DIELTQPPSVSVAPGQTARISCSGDSLGLKKFVSWYQQKPGQAPVLVIYDDSNRPSGIPERFSGSNSGNTATLTISGTQAEDEADYYCGTYDQTIGHDVVFGGGTKLTVLG
B2: PHD104 Fab (Fab, V domains shown)
VH: QVQLVQSGAEVKKPGESLKISCKGSYSFTSNWIGWVRQMPGKGLEWMGWIYPSDSMTRYSPSFQGQVTISADKSISTAYLQWSSLKASDTAMYYCARYLFGLFDNWGQGTLVTVSS
VL: DIELTQPPSVSVAPGQTARISCSGDNLGSYYVSWYQQKPGQAPVLVIYNDNNRPSGIPERFSGSNSGNTATLTISGTQAEDEADYYCATYDSSTDVFGGGTKLTVLG
B3: PHD126 Fab (Fab, V domains shown)
VH: QVQLVQSGAEVKKPGESLKISCKGSYSFSNYWIGWVRQMPGKGLEWMGFIDPDDSDTNYSPSFQGQVTISADKSISTAYLQWSSLKASDTAMYYCARALYMQGGSFDSWGQGTLVTVSS
VL: DIELTQPPSVSVAPGQTARISCSGDNLGSYYVSWYQQKPGQAPVLVIYRDTDRPSGIPERFSGSNSGNTATLTISGTQAEDEADYYCQSYDYGVSNQVFGGGTKLTVLG
B4: PHD127 Fab (Fab, V domains shown)
VH: QVQLVQSGAEVKKPGESLKISCKGSYSFTNSWISWVRQMPGKGLEWMGIIDPDDSYTSYSPSFQGQVTISADKSISTAYLQWSSLKASDTAMYYCARGAGYGRMFGDVWGQGTLVTVSS
VL: DIELTQPPSVSVAPGQTARISCSGDNLGSYYASWYQQKPGQAPVLVIYQDDNRPSGIPERFSGSNSGNTATLTISGTQAEDEADYYCGAYTYSTSWVFGGGTKLTVLG
notes: Human HuCAL Fab; 8 (VH) and 9 (VL) for PHD127 are inferred from the order of the words and must be checked against the listing

Tests used:
[1] = molecular target: T1, murine Tissue Factor in murine brain extracts (murine, UniProt P20352 29-294); assay: cell-based or functional assay
T1 sequence (looked up): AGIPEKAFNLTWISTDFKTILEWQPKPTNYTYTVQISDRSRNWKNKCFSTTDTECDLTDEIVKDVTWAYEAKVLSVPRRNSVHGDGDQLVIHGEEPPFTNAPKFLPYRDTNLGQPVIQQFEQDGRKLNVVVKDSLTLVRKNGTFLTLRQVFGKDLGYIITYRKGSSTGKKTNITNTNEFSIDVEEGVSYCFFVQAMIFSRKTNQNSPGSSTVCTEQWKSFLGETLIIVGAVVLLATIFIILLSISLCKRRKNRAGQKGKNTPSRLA

[2] = molecular target: T2, murine Tissue Factor on B6F10 melanoma cells (murine, UniProt P20352 29-294); assay: FACS on B6F10 melanoma cells that express mTF
T2 construct: whole, on cells; also called cell-associated mTF
T2 sequence (looked up): T1 sequence (looked up)

Binder	EC50 Conc. (ug/ml), inhibition of fibrin clot formation in human plasma [1] [µg/mL]	EC50 [2] [nM]
B1	63.3	
B2	23.8	
B3	0.23	
B4	0.82	4.35
